# Laboratory results as given in publication PMC11480844 (2024).
# Positions count from the first letter of the chain named.
# B1: H2-Kb / Ed21 (parent complex)
# chain 1: AQSVTQPDARVTVSEGASLQLRCKYSYFGTPYLFWYVQYPRQGLQLLLKYYPGDPVVQGVNGFEAEFSKSNSSFHLRKASVHWSDWAVYFCAVSMSGGYKVVFGSGTRLLVSP
# chain 2: DSGVVQSPRHIIKEKGGRSVLTCIPISGHSNVVWYQQTLGKELKFLIQHYEKVERDKGFLPSRFSVQQFDDYHSEMNMSALELEDSAMYFCASSPRQTDYTFGSGTRLLVI
# chain 3: not shown
# chain 4: IQKTPQIQVYSRHPPENGKPNILNCYVTQFHPPHIEIQMLKNGKKIPKVEMSDMSFSKDWSFYILAHTEFTPTETDTYACRVKHDSMAEPKTVYWDRDM
# chain 5: SIINFEKL
# B2: H2-Kb / Ed28 (parent complex)
# chain 1: AQSVTQPDARVTVSEGASLQLRCKYSYFGTPYLFWYVQYPRQGLQLLLKYYPGDPVVQGVNGFEAEFSKSNSSFHLRKASVHWSDWAVYFCAVSPGSGGKLTLGAGTRLQVNL
# chain 2: B1 chain 2 with Q97A, T98S
# chain 3: not shown
# chain 4: B1 chain 4
# chain 5: SIINFEKL
# Variants of: B1
# Assay: % of reporter cells activated (NFAT-GFP), raw
# Note: test concentration or dose not given here.
row,Variant,ratio to parent
1,chain 5 E6V,0.0269
2,chain 5 E6Q,0.918
3,chain 5 F5N,0.947
4,chain 5 F5I,0.891
5,chain 5 F5S,0.886
6,chain 5 I2V,1.04

# Now from value to variant:
row,ratio to parent,Variant
1,0.966,chain 5 L8G
2,0.706,chain 5 K7N
3,0.618,chain 5 N4L
4,0.927,chain 5 S1T

# Variants of: B2
# Assay: % of reporter cells activated (NFAT-GFP), raw
row,Variant,ratio to parent
1,chain 5 K7I,0.197
2,chain 5 K7D,0.00937
3,chain 5 K7A,0.162
4,chain 5 K7G,0.185
5,chain 5 K7H,0.81
6,chain 5 K7L,0.244
7,chain 5 K7C,0.0363
8,chain 5 K7F,0.0786
9,chain 5 F5G,0.564
10,chain 5 F5A,0.81
11,chain 5 F5D,0.687
12,chain 5 F5M,0.741
13,chain 5 F5N,0.742
14,chain 5 F5C,1.13
15,chain 5 F5R,0.774
16,chain 5 F5T,1.17
17,chain 5 F5H,1
18,chain 5 F5K,0.56
19,chain 5 F5L,0.844
20,chain 5 F5Y,0.875
21,chain 5 F5P,0.74
22,chain 5 F5W,0.773
23,chain 5 F5V,0.772
24,chain 5 F5E,0.483
25,chain 5 I3E,0.656
26,chain 5 I3A,0.632
27,chain 5 I3G,0.836

row,Variant,ratio to parent
1,chain 5 I3L,0.98
2,chain 5 I3C,0.894
3,chain 5 I3V,1.08
4,chain 5 I3F,0.6
5,chain 5 I3W,0.592
6,chain 5 I3Y,0.369
7,chain 5 I3P,0.898
8,chain 5 I3S,1.14
9,chain 5 I3D,0.727
10,chain 5 I3T,1.31
11,chain 5 I3K,0.651
12,chain 5 I3R,0.134
13,chain 5 I3Q,0.449
14,chain 5 I3N,1.16
15,chain 5 I3M,0.959
16,chain 5 I3H,1.24
17,chain 5 E6H,0.116
18,chain 5 E6I,0.0144
19,chain 5 E6Y,0.0885
20,chain 5 E6C,0.0175
21,chain 5 E6T,0.0253
22,chain 5 E6A,0.238
23,chain 5 E6D,0.533
24,chain 5 E6W,0.00894
25,chain 5 E6G,0.651
26,chain 5 E6K,0.702
27,chain 5 E6V,0.0103

row,Variant,ratio to parent
1,chain 5 E6P,0.0742
2,chain 5 E6S,0.039
3,chain 5 E6N,0.22
4,chain 5 E6F,0.013
5,chain 5 E6Q,0.315
6,chain 5 E6R,0.0718
7,chain 5 E6L,0.014
8,chain 5 I2R,0.92
9,chain 5 I2P,1.2
10,chain 5 I2M,0.857
11,chain 5 I2W,0.702
12,chain 5 I2F,1.01
13,chain 5 I2N,0.898
14,chain 5 I2G,1.06
15,chain 5 I2D,1.3
16,chain 5 I2A,1.25
17,chain 5 I2L,1.14
18,chain 5 I2V,1.3
19,chain 5 I2K,0.837
20,chain 5 I2H,0.659
21,chain 5 I2Y,0.58
22,chain 5 I2Q,0.574
23,chain 5 I2E,0.981
24,chain 5 I2S,1.14
25,chain 5 I2C,1.15

# Next, values leading:
row,ratio to parent,Variant
1,0.81,chain 5 S1Q
2,0.693,chain 5 S1P
3,0.965,chain 5 S1F
4,0.67,chain 5 S1V
5,0.59,chain 5 S1C
6,0.798,chain 5 S1E
7,0.536,chain 5 S1D
8,1,chain 5 S1H
9,0.321,chain 5 S1R
10,0.825,chain 5 S1Y
11,0.723,chain 5 S1W
12,1.05,chain 5 S1A
13,0.332,chain 5 S1L
14,0.445,chain 5 S1K
15,0.433,chain 5 S1I
16,1.13,chain 5 S1T
17,0.898,chain 5 S1G
18,0.293,chain 5 S1N
19,0.159,chain 5 K7V
20,0.496,chain 5 K7R
21,0.406,chain 5 K7S

row,ratio to parent,Variant
1,0.115,chain 5 K7T
2,0.141,chain 5 K7Q
3,0.48,chain 5 K7Y
4,0.242,chain 5 K7N
5,0.407,chain 5 K7W
6,0.104,chain 5 K7M
7,0.145,chain 5 K7P
8,0.475,chain 5 L8D
9,0.493,chain 5 L8E
10,0.761,chain 5 L8V
11,1.02,chain 5 L8F
12,0.709,chain 5 L8A
13,1.02,chain 5 L8I
14,0.602,chain 5 L8Q
15,0.685,chain 5 L8W
16,0.563,chain 5 L8S
17,0.83,chain 5 L8P
18,0.584,chain 5 L8K
19,0.616,chain 5 L8C
20,0.85,chain 5 L8H
21,0.915,chain 5 L8R

row,ratio to parent,Variant
1,0.862,chain 5 L8M
2,0.832,chain 5 L8T
3,0.947,chain 5 L8G
4,0.00495,chain 5 N4Q
5,0.227,chain 5 N4R
6,0.00481,chain 5 N4P
7,0.035,chain 5 N4D
8,0.329,chain 5 N4L
9,0.00909,chain 5 N4V
10,0.0349,chain 5 N4T
11,0.504,chain 5 N4K
12,0.00709,chain 5 N4M
13,0.0544,chain 5 N4E
14,0.0195,chain 5 N4Y
15,0.167,chain 5 N4I
16,0.0197,chain 5 N4C
17,0.0123,chain 5 N4F
18,0.0455,chain 5 N4H
19,0.0295,chain 5 N4A
